Laboratory results as given in publication PMC7904446 (Cell Host & Microbe, 2021).
Positions count from the first letter of the chain named.

Molecular target: recombinant SARS-CoV-2 spike protein receptor binding domain (RBD) (SARS-CoV-2, UniProt P0DTC2, biotin (the listed product is biotinylated))
Experiment: SPR

B1: ZDY20 Fab (Fab, V domains shown)
VH: EVQLVETGGGLIQPGGSLRLSCAASGITVSSNYMSWVRQAPGKGLEWVSVIYSGGSTYYADSVKGRFTISRDNSKNTLYLQMNSLRAEDTAVYYCAREGLGDGYNAIAGLGFDLWGRGTLVTVSS
VL: DIVMTQSPSSLSASVGDSVTITCQASQDINNYLNWYQQKPGRAPELLINDASNLEAGVPSRFSGSGSGTDFTLTISSLQTEDFATYYCQQYGSLPYTFGQGTKLDIR
  Kd: 74.9 nM

B2: ZDY28 Fab (Fab, V domains shown)
VH: EVQLVQSGGGVVQPGRSLRLSCAASGFTFSSYGMHWVRQAPGKGLEWVAVISYDGSNKYYADSVKGRFTISRDNSKNTLYLQMNSLRAEDTAVYYCASRSTVVPAAIFAFDIWGQGTMVTVSS
VL: not shown
  Kd: 19.2 nM

B3: ZDY49 Fab (Fab, V domains shown)
VH: B2 VH with Q6E
VL: not shown
  Kd: 42.3 nM

B4: ZDY95 Fab (Fab, V domains shown)
VH: B2 VH
VL: not shown
  Kd: 26.2 nM
